Series [1] has as its target T1, E53 (Erythrobacter longus, UniProt A0A074MDU6, I256L).
T1 construct: gene EH31_02760; full length, 314 residues; N-terminal His6-SUMO tag (pSMT3) removed with Ulp1; E. coli BL21(DE3); monomer
Description: X-ray crystal structure, substrate soak. The conditions noted are these: pH 6.5 crystals; active site. It counts as binding.

Series [2] deals with T2, E53 (Erythrobacter longus, UniProt A0A074MDU6).
T2 construct: gene EH31_02760; full length, 314 residues; N-terminal His6-SUMO tag (pSMT3) removed with Ulp1; E. coli BL21(DE3); monomer
T2 sequence (A0A074MDU6 entry or part of it): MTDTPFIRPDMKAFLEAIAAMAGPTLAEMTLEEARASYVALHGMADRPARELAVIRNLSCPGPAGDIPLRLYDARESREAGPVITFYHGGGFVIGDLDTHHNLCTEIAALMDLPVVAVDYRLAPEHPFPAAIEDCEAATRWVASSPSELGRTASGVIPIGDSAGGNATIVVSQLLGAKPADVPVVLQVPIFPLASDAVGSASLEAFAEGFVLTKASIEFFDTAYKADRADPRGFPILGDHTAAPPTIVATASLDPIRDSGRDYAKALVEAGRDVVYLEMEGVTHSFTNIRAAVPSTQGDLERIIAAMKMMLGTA
Kind of series: X-ray crystal structure, substrate soak. Particulars: pH 6.5 crystals; active site. The format is binding.

The target of series [3] is T3, E53 (Erythrobacter longus, UniProt A0A074MDU6, S285G).
T3 construct: gene EH31_02760; full length, 314 residues; N-terminal His6-SUMO tag (pSMT3) removed with Ulp1; E. coli BL21(DE3); monomer
T3 sequence (A0A074MDU6 entry or part of it S285G): as the sequence (A0A074MDU6 entry or part of it) above, with S285G counted along it
Description: X-ray crystal structure, substrate soak. The format is binding. The conditions noted are these: pH 6.5 crystals; active site.

Substrate in the series “purified protein”: CCCC(=O)Oc1ccc([N+](=O)[O-])cc1
Kind of series: purified protein. It counts as biochemical, Erythrobacter longus. The conditions noted are these: Tris-HCl pH 9.0 (also pH 7.0), 40 °C, 0.05-4.00 mM substrate.

Changes are numbered by the printed parent chain. In names and notes the source's numbering stands.

T1 sequence (A0A074MDU6 entry or part of it I256L): as the sequence (A0A074MDU6 entry or part of it) above, with I256L counted along it

As for `CCCCCC(=O)Oc1ccc([N+](=O)[O-])cc1` [C6, p-NP hexanoate], the “X-ray crystal structure, substrate soak” value on E53 [1] is “observed in the crystal structures of E53, I256L, and S285G”; on E53 [2] it was “observed in the crystal structures of E53, I256L, and S285G”; on E53 [3], “observed in the crystal structures of E53, I256L, and S285G”.

B1: E53 (Erythrobacter longus; F191Y) (protein)
chain: MTDTPFIRPDMKAFLEAIAAMAGPTLAEMTLEEARASYVALHGMADRPARELAVIRNLSCPGPAGDIPLRLYDARESREAGPVITFYHGGGFVIGDLDTHHNLCTEIAALMDLPVVAVDYRLAPEHPFPAAIEDCEAATRWVASSPSELGRTASGVIPIGDSAGGNATIVVSQLLGAKPADVPVVLQVPIYPLASDAVGSASLEAFAEGFVLTKASIEFFDTAYKADRADPRGFPILGDHTAAPPTIVATASLDPIRDSGRDYAKALVEAGRDVVYLEMEGVTHSFTNIRAAVPSTQGDLERIIAAMKMMLGTA
notes: full length, 314 residues; N-terminal His6-SUMO tag (pSMT3) removed with Ulp1; E. coli BL21(DE3); monomer
The term Km denotes the substrate concentration at which the rate is half of its maximum. As for B1, the Km in “purified protein” amounted to 210 ± 20 µM.

B2: E53 (Erythrobacter longus; S216A) (protein)
chain: B1 chain with Y191F, S216A
notes: as for B1
Regarding B2, the Km in “purified protein” amounted to 420 ± 30 µM.

B3: E53 (Erythrobacter longus; A167L) (protein)
chain: B1 chain with A167L, Y191F
notes: as for B1
B3: in “purified protein”, the Km came out at 150 ± 10 µM.

B4: E53 (Erythrobacter longus) (protein)
chain: B1 chain with Y191F
notes: as for B1
Regarding B4, in “purified protein”, the Michaelis-Menten constant (Km) is 330 ± 30 µM.

B5: E53 (Erythrobacter longus; V211A) (protein)
chain: B1 chain with Y191F, V211A
notes: as for B1
On to B5, for which the Km in the series “purified protein” is 520 ± 30 µM.

B6: E53 (Erythrobacter longus; I256L) (protein)
chain: B1 chain with Y191F, I256L
notes: as for B1
In the case of B6, the Michaelis constant (Km) in the series “purified protein” amounted to 230 ± 20 µM.

B7: E53 (Erythrobacter longus; N166A) (protein)
chain: B1 chain with N166A, Y191F
notes: as for B1
Consider B7, for which the Michaelis-Menten constant (Km) in “purified protein” stood at 460 ± 40 µM.

The values are drawn from publication PMC8767022, “Mechanism and Structural Insights Into a Novel Esterase, E53, Isolated From Erythrobacter longus” (Frontiers in Microbiology, 2022).
